This note sets out measurements from patent US5376640A, “Lipolytic enzyme inhibitors” (Nisshin Flour Milling Co., Ltd., priority 1989, dated 1994).

The target in experiment [1] is Porcine pancreatic lipase (porcine) (UniProt P00591).
The target is the same in experiment [2]. This is another data set of the same source.
Experiment [3] has the same target. This is another data set of the same source.
Experiment [4] shares this target. The source holds these as a separate data set.

Consider β-purothionin (SEQ ID NO:3) (peptide), for which the Activity of porcine pancreatic lipase, separate experiment at 0.04 mg/ml in experiment [1] was determined as 5.2%. The Activity of porcine pancreatic lipase, solution diluted to 0.2 mg/ml in experiment [2] was 0%. Further, in experiment [3], the Activity of porcine pancreatic lipase (%) is 0 % of control. The Activity of porcine pancreatic lipase (%), Tris buffer in experiment [4] is 1.3 % of control.
